Assay results: patent US6709838 (Genentech, dated 2004)

T1: human Ptch-2 (SEQ ID NO:2), overexpressed on transfected human 293 embryonic kidney cells (human, UniProt Q9Y6C5 1-1203)
T1 construct: also called Patched-2; patched-2
T1 sequence: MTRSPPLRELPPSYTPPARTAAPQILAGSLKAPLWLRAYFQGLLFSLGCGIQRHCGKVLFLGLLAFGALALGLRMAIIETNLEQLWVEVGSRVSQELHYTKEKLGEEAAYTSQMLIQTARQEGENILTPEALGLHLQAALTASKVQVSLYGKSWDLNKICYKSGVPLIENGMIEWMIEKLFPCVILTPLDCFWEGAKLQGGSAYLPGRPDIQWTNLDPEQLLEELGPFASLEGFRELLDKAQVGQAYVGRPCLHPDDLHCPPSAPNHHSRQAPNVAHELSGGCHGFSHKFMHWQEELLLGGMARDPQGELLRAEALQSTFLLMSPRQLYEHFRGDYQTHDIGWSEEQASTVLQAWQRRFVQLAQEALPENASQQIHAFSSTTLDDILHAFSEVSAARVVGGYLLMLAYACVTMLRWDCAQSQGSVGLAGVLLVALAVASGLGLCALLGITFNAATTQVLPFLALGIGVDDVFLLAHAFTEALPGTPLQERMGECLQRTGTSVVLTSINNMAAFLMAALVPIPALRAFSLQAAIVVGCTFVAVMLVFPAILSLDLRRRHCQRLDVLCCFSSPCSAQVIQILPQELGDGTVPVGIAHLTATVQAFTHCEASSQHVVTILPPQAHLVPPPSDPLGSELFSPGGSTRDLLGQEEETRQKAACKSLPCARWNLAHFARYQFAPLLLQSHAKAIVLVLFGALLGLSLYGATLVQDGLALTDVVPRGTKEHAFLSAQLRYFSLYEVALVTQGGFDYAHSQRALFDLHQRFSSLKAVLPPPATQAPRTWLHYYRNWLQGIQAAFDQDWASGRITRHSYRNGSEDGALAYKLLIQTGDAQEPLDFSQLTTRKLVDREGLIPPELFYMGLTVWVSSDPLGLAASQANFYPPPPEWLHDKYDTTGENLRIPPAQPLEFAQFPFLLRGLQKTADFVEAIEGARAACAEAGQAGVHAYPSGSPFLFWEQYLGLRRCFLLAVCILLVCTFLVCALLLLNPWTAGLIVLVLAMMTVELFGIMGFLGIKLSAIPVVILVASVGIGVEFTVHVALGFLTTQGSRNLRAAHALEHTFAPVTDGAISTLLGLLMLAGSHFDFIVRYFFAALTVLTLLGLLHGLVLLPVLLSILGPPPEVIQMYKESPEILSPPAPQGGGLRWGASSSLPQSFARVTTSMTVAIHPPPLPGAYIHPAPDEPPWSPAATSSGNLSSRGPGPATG


Molecular target: T1, human Ptch-2 (SEQ ID NO:2), …
Assay: Scatchard analysis of 125I-Shh displacement curves, 293 cells expressing Ptch-2

| Kd | Binder |
| --- | --- |
| 0.4 nM | Ihh (SEQ ID NO:29) (ligand, also called Indian Hh) not shown |
| 0.6 nM | Dhh (SEQ ID NO:13) (ligand, also called Desert Hh; Desert hedgehog) not shown |
